Sequences and labels used below:
B1: PLEKHM1‐LIR WT peptide (EDEWVNVQY), biotinylated [modified: biotin; biotin] [not stated] / 6xHis‐tagged GABARAP‐L1 [human] (parent complex)
chain 1: EDEWVNVQY
chain 2: not shown
B2: PLEKHM1‐LIR WT peptide (EDEWVNVQY), biotinylated [modified: biotin; biotin] [not stated] / 6xHis‐tagged LC3C [human] (parent complex)
chain 1: EDEWVNVQY
chain 2: MPPPQKIPSVRPFKQRKSLAIRQEEVAGIRAKFPNKIPVVVERYPRETFLPPLDKTKFLVPQELTMTQFLSIIRSRMVLRATEAFYLLVNNKSLVSMSATMAEIYRDYKDEDGFVYMTYASQETFG
B3: PLEKHM1‐LIR WT peptide (EDEWVNVQY), biotinylated [modified: biotin; biotin] [not stated] / 6xHis‐tagged LC3B [human] (parent complex)
chain 1: EDEWVNVQY
chain 2: not shown

Variants of B1 are the subject of the first assay. Description: peptide array ELISA (biotinylated peptide on streptavidin plate, 6xHis-mATG8, anti-His-HRP, TMB); absorbance at 450 nm; n = 4; read off a plot. A general note: In an ELISA, binding on a coated surface is turned into a signal by an enzyme label.
With chain 1 V5A, the screen value was around 1.7 fold over mutLIR.

Turning to chain 1 V7A, the screen value was around 2 fold over mutLIR.

On to chain 1 N6A, for which the screen value was around 9.9 fold over mutLIR.

As to chain 1 V5A, chain 1 N6A, the screen value is around 1.3 fold over mutLIR.

A further assay covers variants of B1. Briefly: peptide array (biotinylated LIR peptide, 6xHis-mATG8, absorbance); n = 3; read off a plot.
Take chain 1 V7L: the percent of parent is around 110 % Mutant LIR/WT.

Turning to chain 1 V7I, the percent of parent was around 95 % Mutant LIR/WT.

Regarding chain 1 W4F, the percent of parent is around 60 % Mutant LIR/WT.

For the variant chain 1 W4Y, the percent of parent was around 55 % Mutant LIR/WT.

For chain 1 W4A, chain 1 V7A, the percent of parent is around 7 % Mutant LIR/WT.

The variants in the next assay derive from B2. Description: peptide array ELISA (biotinylated peptide on streptavidin plate, 6xHis-mATG8, anti-His-HRP, TMB); absorbance at 450 nm; n = 4; read off a plot.
For chain 1 V5A, the screen value was around 1.5 fold over mutLIR.

For the variant chain 1 V7A, the screen value is around 1.4 fold over mutLIR.

With chain 1 V5A, chain 1 N6A, the screen value is around 1.2 fold over mutLIR.

For the variant chain 1 N6A, the screen value was around 1.7 fold over mutLIR.

In another assay the parent is B2. Briefly: peptide array (biotinylated LIR peptide, 6xHis-mATG8, absorbance); n = 3; read off a plot.
chain 1 W4A, chain 1 V7A: the percent of parent was around 5 % Mutant LIR/WT.

Consider chain 1 V7L, for which the percent of parent was around 85 % Mutant LIR/WT.

As to chain 1 V7I, the percent of parent is around 110 % Mutant LIR/WT.

chain 1 W4F: the percent of parent is around 50 % Mutant LIR/WT.

For the variant chain 1 W4Y, the percent of parent is around 25 % Mutant LIR/WT.

Variants of B3 are the subject of the next assay. Briefly: peptide array (biotinylated LIR peptide, 6xHis-mATG8, absorbance); n = 5; read off a plot.
With chain 1 V5C, chain 1 N6I, chain 1 V7L, the ratio to parent was around 2.4.

In the case of chain 1 W4A, chain 1 V7A, the ratio to parent was around 0.17.

Take chain 1 V5C, chain 1 N6V, chain 1 V7L: the ratio to parent is around 2.3.

As for chain 1 V5C, chain 1 N6F, chain 1 V7L, the ratio to parent was around 1.9.

The variants in another assay derive from B3. Briefly: peptide array (biotinylated LIR peptide, 6xHis-mATG8, absorbance); n = 3; read off a plot.
As for chain 1 W4Y, the percent of parent was around 10 % Mutant LIR/WT.

For the variant chain 1 W4F, the percent of parent was around 8 % Mutant LIR/WT.

For the variant chain 1 V7I, the percent of parent is around 200 % Mutant LIR/WT.

Consider chain 1 V7L, for which the percent of parent was around 250 % Mutant LIR/WT.

On to chain 1 W4A, chain 1 V7A, for which the percent of parent was around 8 % Mutant LIR/WT.

These data come from paper PMC5538626 (2017).
